{
  "source": "paper PMC2529400",
  "target": "KSHV viral G protein-coupled receptor, Flag-tagged (vGPCR-Flag) (Kaposi's sarcoma-associated herpesvirus (human herpesvirus 8)) (UniProt Q98146)",
  "sequence (Q98146 whole entry)": "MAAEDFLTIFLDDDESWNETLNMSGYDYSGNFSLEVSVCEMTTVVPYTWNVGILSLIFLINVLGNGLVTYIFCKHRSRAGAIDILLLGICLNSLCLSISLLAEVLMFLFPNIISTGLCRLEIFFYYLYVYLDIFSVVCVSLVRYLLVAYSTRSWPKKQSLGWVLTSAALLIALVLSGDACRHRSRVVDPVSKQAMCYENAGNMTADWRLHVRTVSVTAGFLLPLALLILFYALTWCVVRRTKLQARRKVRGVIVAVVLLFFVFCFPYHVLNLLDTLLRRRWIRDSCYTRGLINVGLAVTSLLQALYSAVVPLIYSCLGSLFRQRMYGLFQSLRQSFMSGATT",
  "data": [
    {"substance": "KSHV K7 small membrane protein, V5-tagged (K7-V5), wild type (natural protein)", "values": [
      {"measurement": "AP-1 luciferase reporter activation by vGPCR in 293T cells with K7 co-expressed (about 4.5 fold without K7)", "result": 2, "unit": "fold"},
      {"measurement": "NF-AT luciferase reporter activation by vGPCR in 293T cells with K7 co-expressed (about 25 fold without K7)", "result": 8, "unit": "fold"},
      {"measurement": "NF-κB luciferase reporter activation by vGPCR in 293T cells with K7 co-expressed (about 4 fold without K7)", "result": 2, "unit": "fold"}
    ]}
  ]
}
